Target: canine Met (canine) (UniProt Q75ZY9)
Test: cell-based or functional assay

phosphorylation of canine Met in OSA cell lines: 50 ng/mL
Substance: recombinant human HGF (from UniProt P14210 32-728) (ligand)

— patent US20060057619A1
